Numbering of substitutions follows the chain as printed. Names and notes keep the numbering of the source.
T1: cynomolgus monkey IL-33 expressed with a C-terminal hexahistidine tag (cynomolgus monkey)
T1 construct: also called MfIL-33-6His; Mf-IL-33-6His
T1 chain: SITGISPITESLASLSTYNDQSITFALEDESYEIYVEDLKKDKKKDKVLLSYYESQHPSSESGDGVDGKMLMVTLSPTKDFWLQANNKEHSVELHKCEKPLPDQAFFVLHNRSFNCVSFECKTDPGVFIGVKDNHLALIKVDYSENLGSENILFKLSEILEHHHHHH

T2: biotinylated hIL-33 protein (R&D systems, Cat #3625-IL/CF) (human, UniProt O95760 112-270, biotinylated (sites not given))
T2 construct: Same commercial protein as m21, biotin-labelled; also called biotin-hIL-33
T2 sequence (looked up): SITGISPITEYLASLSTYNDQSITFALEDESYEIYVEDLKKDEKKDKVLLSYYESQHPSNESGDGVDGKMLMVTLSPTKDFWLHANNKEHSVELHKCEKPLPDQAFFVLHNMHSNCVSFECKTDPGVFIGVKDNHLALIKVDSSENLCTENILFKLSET

T3: human IL-33 (R&D Systems, #3625-IL-010/CF) (human, UniProt O95760 112-270)
T3 construct: Commercial recombinant protein; also called hIL-33; interleukin-33
T3 sequence (looked up): T2 sequence (looked up)

B1: H4H9670P (antibody, V domains shown)
VH: EVQLVESGGGLVQPGGSLRLSCAASGFTLSSYAMSWVRQAPGKGLEWVSAISGSGGSTYYADSVKGRFTISRDNSKNSLYLQLNSLRAEDTAVYYCAKTLYTTSWYGGFQHWGQGTLVTVSS
VL: DIQMTQSPSSVSASIGDRVTITCRASQGISSWLAWYQQKPGKVPKLLIYAASSLQSGFPSRFSGSGSGTDFTLTISSLQPEDFATYYCQQTHSFPWTVGQGTKVEIK
notes: Human IgG4 Fc (H4H)
B2: H4H9671P (antibody, human IgG4, V domains shown)
VH: EVQLVESGGGLVQPGGSLRLSCAASGFTLRSYFMTWVRQVPGKGLEGVSAISGISGGTYYTDSVKGRFTISRDNSKNTLFLQMNSLRAEDTAVYFCARTVYSSSYYGGFQHWGQGTLVTVSS
VL: B1 VL with A13V, I15V, V43A, A50V, F58V, H92N, W96L, V98F, Q100G
notes: Human IgG4 Fc (H4H)
B3: H4H9672P (antibody, human IgG4, V domains shown)
VH: B2 VH with F33V, T35Y, V40G, A50G, I54S, T99S, S103T, S104T, Y105W
VL: DIQMTQSPSSVSVSVGDRVTITCRASQVISSWLAWYQLKPGKAPKLLIYAASSLQSGVPSRFSGSGSGTDFTLTISGLQPEDFAVYYCQQTNSFPLTFGGGTKVEIK
notes: Human IgG4 Fc (H4H)
B4: H4H9676P (antibody, human IgG4, V domains shown)
VH: EVQLVESGGGLVQPGGSLRLSCSASGFTFSSYAMNWVRQAPGKGLEWVTAISGSGGGTYYADSVKGRFTISRDNSKNSLFLQLNSLRAEDTAVYYCAKQTYTSSWYGGFDIWGQGTMVTVSS
VL: B3 VL with V13A, V28G, I29F, L38Q, K39I, S53R, S63R, G77S, V85T, T91A
notes: Human IgG4 Fc (H4H)
B5: H4H9675P (antibody, human IgG4, V domains shown)
VH: EVQLVESGGNLEQPGGSLRLSCTASGFTFSRSAMNWVRRAPGKGLEWVSGISGSGGRTYYADSVKGRFTISRDNSKNTLYLQMNSLSAEDTAAYYCAKDSYTTSWYGGMDVWGHGTTVTVSS
VL: DIQMTQSPSSVSASVGDRVTITCRASQGIFSWLAWYQQKPGKAPKLLIYAASSLQSGVPSRFSGSGSGTDFTLTISSLQPEDFAIYYCQQANSVPITFGQGTRLEIK
notes: Human IgG4 Fc (H4H)
B6: H1M9559N (antibody, mouse IgG1, V domains shown)
VH: QVQLVESGGGVVQPGRSLRLSCAASGFTFSSYGMHWVRQAPGKGLEWVAVIWYDGRNKYYTDSVKGRFTISRDNSKNTLYLQMDSLRAEDTAVYYCARERYISSYYGGFDPWGQGALVTVSS
VL: B5 VL with F30S, L46V, I85T, V94F, I96F, Q100P, R103K, E105D
notes: Human variable domains, mouse IgG1 Fc (H1M)

Biological target: T1, cynomolgus monkey IL-33 expressed with …
Assay: competition ELISA, 150 pM MfIL-33-6His on coated hST2-hFc
Procedure: (§1) The ability of anti-IL-33 antibodies to block either human IL-33 (hIL-33) or cynomologus monkey IL-33 binding to the human ST2 receptor was measured using a competition sandwich ELISA. […] The antibody/IL-33 mixtures were incubated for 1 hour at room temperature before they were transferred to the hST2-hFc-coated microtiter plates. After incubating for 1 hour at room temperature, the wells were then washed, and plate-bound biotin-hIL-33 was detected with streptavidin conjugated with horse-radish peroxidase (HRP) (Thermo Scientific, Cat # N200), and plate-bound MfIL-33-6His was detected with a HRP conjugated anti-His monoclonal antibody (Qiagen, #34460). All samples were developed with a TMB solution (BD biosciences, #51-2607KC) to produce a colorimetric reaction and then quenched by acidification with 1M sulfuric acid before measuring absorbance at 450 nm on a Victor X5 plate reader. Data analysis was performed using a sigmoidal dose-response model within Prism™ software. […] Percent blockade was calculated as the ratio of the reduction in signal observed in the presence of antibody relative to the difference between the signal with IL-33 alone and background (signal from HRP-conjugated secondary antibody or streptavidin alone). The absorbance measured for the constant concentration of biotin-hIL-33 or MfIL-33-6His alone is defined as 0% blocking and the absorbance measured for no added IL-33 is defined as 100% blocking.

% Maximum blocking	IC50	Binder
69%	3.5 nM	B1
62%	0.58 nM	B2
48%	5.5 nM	B3
57%	3.2 nM	B4
72%	1.5 nM	B5
53%	10 nM	B6

What follows are binders tested against T2, biotinylated hIL-33 protein (R&D …) (assay: competition ELISA, 30 pM biotin-hIL-33 on coated hST2-hFc).
Procedure: as §1

% Maximum blocking	IC50	Binder
69%	0.48 nM	B1
46%	0.46 nM	B2
63%	0.44 nM	B3
54%	0.46 nM	B4
58%	0.44 nM	B5
88%	0.14 nM	B6

Biological target: T1, cynomolgus monkey IL-33 expressed with …
Assay: SPR 25C, pH6.0 chase, mAb captured
Procedure: (§2) Equilibrium dissociation constants (KD values) for IL-33 binding to purified anti-IL-33 monoclonal antibodies were determined using a real-time surface plasmon resonance biosensor using a Biacore 4000 instrument. The Biacore sensor surface was first derivatized by amine coupling with either a polyclonal rabbit anti-mouse antibody (GE, # BR-1008-38) or with a monoclonal mouse anti-human Fc antibody (GE, # BR-1008-39) to capture anti-IL-33 monoclonal antibodies expressed with mouse or with human IgG4 constant regions, respectively. All Biacore binding studies were performed in 0.01M ADA pH 7.4, 0.15M NaCl, 3 mM EDTA, and 0.05% v/v Surfactant Tween-20 (ABS-ET running buffer). […] Association of either hIL-33 or MfIL-33-6His to the captured monoclonal antibody was monitored for 4 minutes and their dissociation in ABS-ET running buffer was monitored for 10 minutes. The effect of reduced pH on the binding of each anti-IL-33 antibody to either hIL-33 or MfIL-33-6His was studied using an in-line pH chase assay format in 0.01M ADA pH 6.0, 0.15M NaCl, 3 mM EDTA, and 0.05% v/v Surfactant Tween-20 (ABS-ET pH6 buffer). To achieve this, association of either hIL-33 or MfIL-33-6His to the captured monoclonal antibody was monitored for 4 minutes in ABS-ET running buffer. Following a 30 second dissociation of either hIL-33 or MfIL-33-6His in ABS-ET running buffer, ABS-ET pH6 buffer was injected for 3 minutes, and the analyte dissociation under the low-pH conditions was measured. All the binding kinetic experiments were performed at both 25° C. and 37° C. Kinetic association (kₐ) and dissociation (kd) constants were determined by fitting the real-time sensorgrams to a 1:1 binding model using Scrubber 2.0c curve fitting software. Binding dissociation equilibrium constants (KD) and dissociative half-lives (t½) were calculated from the kinetic rate constants as: […]

koff	t½	t½ Ratio (pH 7.4/pH 6.0)	Binder
0.000393 s⁻¹	29 min	0.2	B1
0.00161 s⁻¹	7 min	1.1	B2
0.00267 s⁻¹	4 min	0.7	B3
0.00145 s⁻¹	8 min	0.4	B4
0.00156 s⁻¹	7 min	1.2	B5
0.00152 s⁻¹	8 min	1.2	B6

These binders were tested against T3, human IL-33 (R&D Systems, …) (assay: SPR 25C, pH6.0 chase, mAb captured).
Procedure: as §2

koff	t½	t½ Ratio (pH 7.4/pH 6.0)	Binder
0.000825 s⁻¹	14 min	2.9	B1
0.00162 s⁻¹	7 min	4.6	B2
0.00141 s⁻¹	8 min	4	B3
0.00121 s⁻¹	10 min	3.5	B4
0.00111 s⁻¹	10 min	4.3	B5
0.000187 s⁻¹	62 min	0.7	B6

These binders were tested against T4, pre-formed complex of hIL-33 and captured hST2-MMH (human, UniProt O95760 112-270) (assay: SPR 25C, 100 nM mAb over hIL-33/hST2-MMH complex).
T4 construct: Ligand-receptor complex on the sensor: hST2-MMH captured by anti-myc mAb and saturated with 100 nM hIL-33; also called hIL-33 pre-complexed with hST2-MMH
Procedure: The ability of anti-IL-33 antibodies to bind to a pre-formed complex of IL-33 with ST2 was tested using Biacore T-200 instrument equipped with a real-time surface plasmon resonance biosensor. The experiment was performed at 25° C. with a running buffer composed of 0.01M HEPES pH 7.4, 0.15M NaCl, 3 mM EDTA, and 0.05% v/v Surfactant Tween-20 (HBS-ET). […] The captured hST2-MMH surface was then saturated by injecting 100 nM of human IL-33 (hIL-33; R&D Systems, #3625-IL-010/CF) for 3 minutes followed by a 3 minute injection of a 100 nM solution of the anti-IL-33 monoclonal antibody. The real-time binding response was monitored during the entire course of the experiment, and the observed binding response at 3 minutes after injection of anti-IL-33 antibody to the pre-formed complex of hIL-33 and captured hST2-MMH was recorded and tabulated and shown in Table 7. No non-specific binding of anti-IL-33 monoclonal antibody to the anti-myc tag capture surface was observed.

Antibody Binding Response (RU)	Binder
-1 RU	B1
-1 RU	B2
-1 RU	B3
-1 RU	B4
-1 RU	B5
-4 RU	B6

From patent US20160362487A1 (Regeneron, published 2016)
